Article PMC3836734

Target: Fc neonatal receptor (FcRn) (human (endogenous in HEC-1A)) (UniProt P55899)
Chain of UniProt P55899 (P55899 whole entry, looked up, tested part not stated): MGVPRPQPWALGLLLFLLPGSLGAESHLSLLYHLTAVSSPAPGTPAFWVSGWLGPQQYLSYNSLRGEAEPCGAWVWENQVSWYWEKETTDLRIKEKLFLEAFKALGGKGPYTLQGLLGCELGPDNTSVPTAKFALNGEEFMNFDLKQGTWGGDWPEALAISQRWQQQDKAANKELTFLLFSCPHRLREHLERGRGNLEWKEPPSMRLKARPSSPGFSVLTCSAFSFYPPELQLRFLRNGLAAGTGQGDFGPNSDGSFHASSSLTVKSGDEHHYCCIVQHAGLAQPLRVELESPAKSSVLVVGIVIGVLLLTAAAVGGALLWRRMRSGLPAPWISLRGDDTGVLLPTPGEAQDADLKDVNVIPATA

**Q.** How did the transcytosis of IgG alone (50 µg/ml) across HEC-1A cells, IgG in subnatant fluid by ELISA after 12 hours; about 0.4% at pH 7.4 turn out when mAb VRC01, IgG1 (antibody) was run?
**A.** 1.3%
